# Data: patent US10874712B2, “Methods, compounds and compositions for modulating blood brain barrier integrity and re-myelination” (University Health Network, priority 2015, dated 2020)
# B1: sRGMc: truncated form of RGMc with the GPI anchor sequence removed, released as a soluble protein (SEQ ID NOs: 1 and 3) (protein, listed as Homo sapiens)
# chain: CKILRCNAEYVSSTLSLRGGGSSGALRGGGGGGRGGGVGSGGLCRALRSYALCTRRTARTCRGDLAFHSAVHGIEDLMIQHNCSRQGPTAPPPPRGPALPGAGSGLPAPDPCDYEGRFSRLHGRPPGFLHCASFGDPHVRSFHHHFHTCRVQGAWPLLDNDFLFVQATSSPMALGANATATRKLTIIFKNMQECIDQKVYQAEVDNLPVAFEDGSINGGDRPGGSSLSIQTANPGNHVEIQAAYIGTTIIIRQTAGQLSFSIKVAEDVAMAFSAEQDLQLCVGGCPPSQRLSRSERNRRGAITIDTARRLCKEGLPVEDAYFHSCVFDVLISGDPNFTVAAQAALEDARAFLPDLEKLH
# Columns and labels:
# b.end3 cells = assay: In vitro BBB permeability, Dextran-FITC extravasation in Boyden chamber; type: cell-based, mouse; details: b.end3 monolayer; 4 h pre-treatment (10 μg/mL sRGMc, 10 μg/mL C3 Transferase or 10 μM Y27632), then RGMa 18 h
# Protocol: (A) Neogenin expression was analyzed on the membrane of b.end3 cells using immunohistochemical staining and by Western blot. (B) Crystal violet staining showing the b.end3 cell monolayer, (C) Representative diagram of the boyden chamber set up and (D) BBB permeability in b.end3 cells. Serum-starved cells were incubated for 4 h with RGMa (10 μg/ml), C3 Transferase (10 μg/mL) or Y27632 (10 μM) or sRGMc (10 μg/mL) and were then incubated with sRGMa (5 μg/mL) for 18 h followed by seeding of Dextran-FITC onto the upper chamber. Extravasation was measured over a period of 60 min as described in the Examples. n=3, performed in triplicates.
# b.End3 endothelial cells were used to generate an in vitro model of the human EC barrier lining the choroid plexus. Briefly, b.end3 cells were plated on polyethylene-coated 0.4 μm pore size Boyden chambers (Corning) at a density of 2×10^5 cells per well in DMEM, and were allowed to grow for 72 h to reach confluency (verified using crystal violet staining). After 72 h, cells were serum starved for 6 h and pre-treated for 4 h with 10 μg/mL sRGMc, 10 μg/mL C3 Transferase or 10 μM Y27632. RGMa was then added to the wells for 18 h. The transwells were then transferred to a new plate containing 500 μl of HBSS and 200 μl 4-KDa Dextran-FITC (25 mg/ml; Sigma-Aldrich) was added to the upper chambers. Tracer diffusion across the EC monolayer was assessed in 30 min intervals for a period of 1.5 h. FITC signal, which represented the amount of extravasation through the monolayer was analyzed with using a microplate reader.
# EAE-induced mice [1] = assay: Immunohistochemistry of spinal cord for CD3, B220, CD11b infiltrates; type: in vivo, mouse; details: EAE day 18; vs vehicle
# Protocol: Spinal cords were isolated and post-fixed with 4% PFA overnight at 4° C., washed 3× with PBS and soaked in 30% sucrose in PBS for 48 h. Tissues were then embedded in Optimal Cutting Temperature (OCT) compound. Frozen sections of spinal cords were cut at 10-30 μm with a cryostat, mounted on gelatinized slides, dried for 2 h and stored at −80° C. Sections were then re-hydrated in PBS for 5 min and permeabilized with PBST (0.3% Triton X-100 in PBS) for 5 min. The tissues were then blocked (PBS, 0.3% Triton X-100, 3% FBS) for 1 h at room temperature and incubated with the following primary antibodies overnight at 4° C. in a humidified chamber: anti-CD3 (145-2C11, BioLegend); CD11b (M1/70, BioLegend); B220 (RA3-6B2, BioLegend), DAPI (MMS-435P, Sigma), Fibrinogen (D9542, Innovative Research).
# [2] = sRGMc level in sera of treated mice by ELISA; type: in vivo, mouse
# Protocol: Blood collected from the saphenous veins of mice induced with EAE at 0, 5, 10, 18 and 30 days in Microvette® CB300 capillary tubes (Starstedt) was spun down at 2000 rcf for 10 min and stored at −80° C. sRGMa and sRGMc in the sera were detected using ELISA kits for sRGMa (MRGMAO, R&D) and sRGMc (MRGMCO, R&D) according to manufacturer's instructions.
# To ensure that over-expression of sRGMc was efficient, sera from 3 RGMc-treated mice were collected and compared to 3 vehicle-treated mice at 24 h post-treatment by ELISA. […] The mice were then observed and scored twice daily at 12 h intervals for 18 days. […] Whether intra-peritoneal (i.p) injections of RGMc could overcome the transient effects observed with intravenous administration of this protein was explored. […] Next the levels of RGMc in the sera of sham-treated animals and mice induced with EAE at day 10 as well as in EAE animals (day 10) that were injected with RGMc were analyzed. […] Thus, EAE reduced RGMc levels and over-expression of sRGMc in EAE-induced mice is beneficial in reducing the incidence and the severity as well as delaying the onset of disease.
# [3] = test system: mice with passively induced EAE; assay: Adoptive transfer EAE, infiltration of CellVue-labelled cells into spinal cord; type: in vivo, mouse; details: treated every 3 days; sacrificed day 8 after transfer; vs PBS
# Protocol: Briefly, donor animals were immunized with 100 ug MOG(35-55) and sacrificed at day 10. Splenocytes were harvested and re-stimulated for 3 days with 33 ug/mL MOG(35-55) in the presence of 20 ng/ml rmIL-23. Cells were then labelled with CellVue Maroon and injected into recipient animals treated with RGMc or vehicle as well as PTx on day 0 and day 2. Recipient animals were treated every 3 days and sacrificed on day 8 and spinal cords sectioned for immunofluorescence staining.
# Having shown that RGMc levels regulate the extravasation of molecules through the BBB, its role on cellular infiltration was evaluated. To do so, adaptive transfer using spleenocyte cells from MOG treated animals was performed. After collection of splenocyte cells were re-stimulated for 3 days with MOG, stained with Cellvue Maroon and injected into recipient mice treated with pertussis toxin. Following injection, animals received either PBS (Control) or RGMc every 3 days. Eight days after transfer animals were sacrificed and cellular infiltration was monitored using Cellvue-reporter. […] Thus, treatment with RGMc prevented T cell infiltration towards the CNS.
# EAE-induced mice [4] = assay: Histological staining (H&E, Luxol Fast Blue) of cervical spinal cord, inflammatory index; type: in vivo, mouse; details: EAE day 18; vs vehicle
# Protocol: At day 18 post-EAE induction, mice were trans-cardially perfused with 20 mL PBS followed by 20 mL 4% paraformaldehyde in PBS (PFA) (Electron Microscopy Sciences) and 30 μm spinal cord cryosections were stained. The slides were washed in PBS for 3 min, followed by a 30 s wash in 50% ethanol (EtOH) and incubated overnight in Luxol Fast Blue (LFB) at 60° C. The sections were washed in 95% EtOH for 5 min, distilled water for 5 min prior to de-staining with […] for 10 min, and were then washed in 70% EtOH for 30 s, 5 min in MilliQ H2O, and sections were immersed in Harris Hematoxylin (Sigma-Aldrich) for 20 min and were rinsed in warm water to remove excess stain. Samples were dehydrated in 95% EtOH, immersed in alcoholic eosin Y (Sigma-Aldrich) for 15 s, dehydrated twice in 95% EtOH for 5 min, 100% EtOH for 5 min and xylene for 5 min. Slides were mounted with Permount (Fisher Scientific) and air-dried overnight at room temperature. Luxol Fast Blue (LFB) staining was quantified using relative staining intensity using Image J software. All intensities were normalized to a sham mouse spinal cord.
# Cellular infiltration was quantified using an inflammatory index: 0, no inflammation; 1, cellular infiltration only in the perivascular areas and meninges; 2, mild cellular infiltration in the parenchyma (<10 cells); 3, moderate cellular infiltration in the parenchyma (10-49 cells); 4, moderate cellular infiltration in the parenchyma (50-99 cells); and 5, severe cellular infiltration in parenchyma (>100 cells).
molecule,measurement,setting,value
B1,extravasation of Dextran-FITC in sRGMa-treated cells,b.end3 cells,reproduced the RhoA/RhoK inhibitor effect
same,infiltration of B220+ cells into cervical spinal cords,EAE-induced mice [1],significantly reduced
same,infiltration of CD3+ cells into cervical spinal cords,EAE-induced mice [1],significantly reduced
same,infiltration of Cd11b+ cells into cervical spinal cords,EAE-induced mice [1],significantly reduced
same,increase in sRGMc levels in sera compared to vehicle-treated animals,"[2]; 24 h post-treatment, ELISA, 3 mice per group",3 fold
same,RGMc levels in sera of EAE mice after RGMc injection,"[2]; EAE day 10, compared to sham-treated animals",restored
same,stability of sRGMc treatment in serum,"[2]; ELISA, FIG. 4F",stable for 24 h post treatment
same,accumulation of Cellvue+ cells within the spinal cord,[3],did not show accumulation
same,extent of cellular infiltrates in cervical spinal cord,EAE-induced mice [4],significantly reduced
same,extent of de-myelination (Luxol Fast Blue),EAE-induced mice [4],significantly reduced
same,inflammatory index score,EAE-induced mice [4],significantly lower
